Experimental data as given in US20250134019A1, “TRIKETONE DIOXYGENASE VARIANTS FOR HERBICIDE TOLERANCE” (Monsanto Technology LLC, priority 2022, published 2025).

Legend:
[1] = Specific activity of purified TDO proteins, second hydroxylation of mesotrione; format: biochemical; conditions: FIG. 8
From the text: Activity was expressed as nmol/min/mg protein and was the mean of three separate assays on the same enzyme sample (technical reps).
To test the hypothesis, the four amino acids of sorghum TDO corresponding to amino acid positions 230, 301, 332, and 335 in rice TDO were replaced with those of rice TDO. The corn, rice, sorghum, and the modified sorghum TDO genes were cloned into a pET28 vector for E. coli expression with His6 tag in the N-terminus. Subsequently, the proteins were expressed and purified by affinity chromatography. BL21-CodonPlus (DE3)-RIPL E. coli cells (Stratagene) were used for expression. Cells transformed with expression vector were grown in autoinduction media (AIM) supplemented with 100 μg mL-1 kanamycin and 34 μg mL-1 chloramphenicol.
TDO proteins used in this study were expressed in AIM cells using an auto-induction system as described by Studier (2014). Briefly, the recombinant cultures were grown at 37° C. for 3 hours and then 20° C. for one or two days. Cells were harvested by centrifugation and frozen at −80° C. The pellet was resuspended in lysis buffer (Bper and Yper [Pierce] with ratio 3 to 1, 25 mM Tris-HCl, 300 mM NaCl, 10 mM imidazole, pH 8.0). 150 mM ferric ammonium citrate (1000X) was added to the lysate to a final concentration of 150 µM and incubated on ice for 20 minutes. The lysate was centrifuged to clarify the supernatant. Clear supernatant was loaded onto a 5 mL Ni column connected to AKTA Express (GE Healthcare). […] Protein concentrations were determined spectrophotometrically based on their calculated molar absorption extinction coefficients at 280 nm.
TDO activity was measured by the second hydroxylation of mesotrione. For routine activity measurements of TDO and determining the kinetic properties of the second hydroxylation, the continuous change in A330, which is specific to the second hydroxylation and subsequent non-enzymatic water removal (i.e. the conversion of hydroxy-mesotrione to oxy-mesotrione), was monitored. […] The reaction proceeded until the maximum A330 was obtained (usually 20-120 minutes depending upon the concentration of mesotrione) and the linear portion of the curve was determined by visual inspection. […]
For the activity calculation, aliquots of the reaction were removed at various time points during the reaction and heated at 95° C. to halt the reaction. The reaction mixtures were analyzed by HPLC and mass spectrophotometry. By product conversation followed by peak integration on HPLC, a linear plot was obtained and the extinction co-efficient delta between the substrate (mesotrione) and the second product (oxy-mesotrione) was obtained according to the equation ΔA330=(εp-εs)*bΔp where ΔA330 is the change of absorbance at 330 nm and b is the light path.

[2] = tested on: transgenic soybean plants; test: Mesotrione injury of R0 transgenic soybean plants expressing TDO homologs; format: in vivo; conditions: promoter Constitutive 1, 3' UTR A; 210 g a.i./ha mesotrione at V3-V4, rated 7-14 days after treatment; mean of all tested events
Experimental: Plant expression vectors comprising the selected TDO homologs under the control of one of two constitutive promoters were transformed into soybean via an Agrobacterium tumefaciens-mediated method. Following Agrobacterium transformation, R0 transgenic soybean plants containing a single copy of the transgene were identified through molecular characterization and segregation analysis. Transgenic and wild-type (control) plants were grown in 6-inch pots filled with BM7 soilless mix in a growth chamber under the conditions of 28° C./23° C. (light/dark) and a 16 hr light/8 hr dark photoperiod. Plants were fertilized with 15-5-15 liquid fertilizer at the V3-V4 growth stage and treated with 210 g a.i./ha mesotrione (1X=105 g a.i./ha; Callisto®, Syngenta in 1% crop oil). Plants were visually rated 7-14 days after treatment on a scale of 0% to 100%, with 0%=no injury and 100%=plant death, relative to the wild-type controls. The results summarized in Table 2 represent the mean of all tested events (10-15) for each construct.

[3] = tested on: transgenic soybean plants; test: TDO protein level (ELISA) and mesotrione injury of transgenic soybean at normal vs elevated temperature; format: in vivo; conditions: elevated temperature (99° F.)
Experimental: Os.TDO-transgenic soybean plants and wild-type control plants were grown at 80° F. until V2 growth stage, then half of the plants were transferred to 99° F. After 3 days, leaf samples were harvested to determine TDO protein levels, and plants were then treated with 2X and 8X rates of mesotrione. Crop injury ratings were taken 11 days after mesotrione treatment. […] The black bars represent TDO protein levels in parts per million per dry weight; the gray bars represent plant injury rate (%) to 2X and 8X mesotrione treatments.
Soybeans were planted and grown under typical greenhouse conditions (85° F. day, 75° F. night) until approximately V3 growth stage. At that time, half of the plants were moved to a higher temperature growth chamber (99° F. day, 82° F. night; 60% relative humidity) for three days prior to leaf sample collection and a spray application of 4X rate mesotrione. Mesotrione was applied to both greenhouse and growth chamber plants. Visual injury ratings were taken at 7 days after treatment. […] The gray bars represent mesotrione injury ratings at 85° F. and the black bars represent mesotrione injury ratings at 99° F. for these transgenic plants.
The TDO variants were grown at 85° F. (gray) vs 99° F. (black). […]
The enzyme activity was measured at room temperature for the hydroxylation of mesotrione, and was defined as Kcat/Km, M-1 sec-1 (specificity constant). […]

[4] = tested on: transgenic cotton plants; test: Mesotrione treatment of cotton plants expressing TDO variants, crop injury; format: in vivo; conditions: for Crop Injury (%), 210 g/ha (2X) Mesotrione / Crop Injury (%), 840 g/ha (8X) Mesotrione: R2 cotton sprayed at V3
Experimental: Cotton is a crop of interest that is often exposed to high temperature growing conditions and thus, selected TDO variants were tested in cotton. Three TDO variants, D08, TDO_6, and TDO_8 were transformed into cotton (along with the Os.TDO control) using similar expression elements in single-cassette vectors or as part of multi-cassette vectors. R2 transgenic cotton plants were then screened for tolerance to mesotrione. Sixteen plants from two events each per construct were sprayed with two rates (2X and 8X) of mesotrione at V3 stage under normal (80° F.) and hot (100° F.) growing conditions. In addition, the effect of heat treatment on TDO accumulation in cotton plants were measured by ELISA. Cotton plants were planted and grown under normal greenhouse conditions (80° F. day/70° F. night) until V3 growth stage. Half of the plants were then moved to a higher temperature growth chamber (100° F. day/82° F. night) for the heat treatment, whereas the remaining half of the plants stayed in the same greenhouse (80° F. day/70° F. night). At day 3 after the plants were placed under different temperature conditions, leaf samples were collected for TDO protein measurement. The plants in 100° F. growth chamber and in 80° F. greenhouse were both sprayed with 2X mesotrione (210 g a.i./ha). Leaf samples were collected again 7 days after mesotrione treatment (DAT: Days After Treatment) for protein assay. Table 5 compares protein levels of the TDO variants in transgenic cotton plants grown under the two tested conditions. The protein levels for the TDO variants were measured at three time points for plants: 1) just before entering the high temperature treatment, 2) three days following placement into control (normal growth temperature) or high temperature (100° F.), and 3) 7 days after a 2X mesotrione spray.

[5] = tested on: transgenic soybean plants; test: Field testing of variant D08 for mesotrione tolerance; format: in vivo; conditions: field setting, no control of temperature
Experimental: Since this testing was conducted in the field, there was no control on the temperature ranges the plants were exposed to.

[6] = specific activity of second hydroxylation

B1: Sb.TDO: TDO homolog from Sorghum bicolor, SEQ ID NO:6 (protein)
chain: MAGESWKVPTPVKDLAALVEEPPSQFVQREEDRPGSLMLAADMPDPLPIVDLDKMSTADEATKLRSALQTWGLFLATNHGIDVSLMEDLMKASREFFNQPLQERQKYSNLREGTRFQLEGYGSDPVIAQDHILDWSDRLQLKVEPEDERNLAQWPKHPESFRDLLHEYATKTKTVMVKILRAMAKTLELDEEDFIDQIGGRPQAYARFNYYPPCPRPELVLGIKAHSDGPLLTVLLVDREVGGLQIQRENKWFNVPSIPHALVINLGDSLEIMSNGIFKSPVHRVVTNAEKERISLAMLYAVQRDNVLEPAPGLLDEKRPAKYRRITEAHFLEGVKEHFSKGMRMIETLKI
modifications: Sorghum bicolor
specific activity of the second hydroxylation ([1]; purified His6-tagged protein from E. coli): not significantly different from the blank
% Injury [2]: 35%

B2: SwM: Sb.TDO variant SwM, SEQ ID NO:48, substitutions P230T-A301S-L332R-V335I (protein)
chain: MAGESWKVPTPVKDLAALVEEPPSQFVQREEDRPGSLMLAADMPDPLPIVDLDKMSTADEATKLRSALQTWGLFLATNHGIDVSLMEDLMKASREFFNQPLQERQKYSNLREGTRFQLEGYGSDPVIAQDHILDWSDRLQLKVEPEDERNLAQWPKHPESFRDLLHEYATKTKTVMVKILRAMAKTLELDEEDFIDQIGGRPQAYARFNYYPPCPRPELVLGIKAHSDGTLLTVLLVDREVGGLQIQRENKWFNVPSIPHALVINLGDSLEIMSNGIFKSPVHRVVTNAEKERISLAMLYSVQRDNVLEPAPGLLDEKRPAKYRRITEAHFRAGIKEHFSKGMRMIETLKI
modifications: TDO variant sequence
activity compared to the rice TDO protein [1, 6]: about 17%

B3: Zm.TDO: TDO homolog from Zea mays, SEQ ID NO:4 (protein)
chain: MADESWRVPTPVQELAATLEEPPSRYVLQEKDRRGSPLVADDMPEPLPVINLSRLSEDATEAAKLESALQSWGLVLVTNHGIETSLMDGVMDASREFFRQPLEEKQKYSNLIDGKRFQVEGYGNDRVATERQILNWNDRLHLKVAPEDERDYTHWPKHPESFRDVLHEYALETKRVRDGIFRATAKILELDEDHFVRLISDRAAAFARFNYYPPCPRPDLVNGVQPHSDAGVLTILLVDKDVRGLQVQRDGVWYNVPPMPYTLLINLGDIMEIMSNGILKSPVHRVVTNAEKERISLAVFYGVGAENALEPAAGLLDEKRPARYRKISMTDFIAGIHGQFSRGTRFIESLKI
modifications: Zea mays
activity lower than rice TDO [1, 6]: about 30%
% Injury [2]: 15%

B4: D08: Os.TDO variant D08, SEQ ID NO:18, 20 amino acid changes relative to Os.TDO (protein)
chain: MADESWRAPALVQELAAKGVEEPPSRYLLREQDRPDVKLVAAELPEPIPVVDLGRLDGAEEATKLRVALQNWGFFLLTNHGIEASLMDDVMNLSREFFNQPIERKQKFSNLIDGKHFQIEGYGTDRVVTQDQVLDWSDRLHLRVEPKEEQDLAFWPDHPESFRDVLHKYASGCKRIRDDIIQAMAKLLELDEDYFLDRFNEAPTFARFNYYPPCPRPDLVFGIRPHSDGGLLTILLVDKDVGGLQVQRDGKWSNVPATPHTLLINLGDTMEVMSNGIFKSPVHRVVTNAEKERISLAMLYSVNDEKDIEPAAGLLDENRPARYRKVSVEEFRAGIFGKFSRGERYIDSLRI
modifications: TDO variant sequence
injury ratings after mesotrione application relative to Os.TDO control [3]: possibly trending lower injury relative to the Os.TDO control
Crop Injury (%), 210 g/ha (2X) Mesotrione ([4]; Under 80° F.): 0%
Crop Injury (%), 840 g/ha (8X) Mesotrione ([4]; Under 80° F.): 0%
Crop Injury (%), 210 g/ha (2X) Mesotrione ([4]; Under 100° F.): 0%
Crop Injury (%), 840 g/ha (8X) Mesotrione ([4]; Under 100° F.): 0%
injury rates relative to Os.TDO controls ([4]; cotton at the higher temperature): trending even lower than the Os.TDO controls
tolerance to mesotrione spray treatment [5]: good tolerance
